Experimental data published in US20190233512A1 (SUTRO BIOPHARMA, published 2019).

Columns and labels:
[1] = target: T1, Cynomolgus folate receptor alpha (cynomolgus monkey, UniProt P15328 25-234 (human entry)); experiment: FACS, CHO-cFOLR1 cells
T1 construct: Stably expressed on CHO cells (CHO-cFOLR1); also called cynomolgus FOLR1; CHO-cFOLR1

[2] = target: T2, Human folate receptor alpha (hFOLR1) (human, UniProt P15328 25-234); experiment: FACS, CHO-hFOLR1 cells
T2 construct: Stably expressed on CHO cells (CHO-hFOLR1) for flow cytometry; endogenous on FOLR1-positive KB and Igrov1 cells in the killing assay; also called human FOLR1; FolRα
T2 sequence (P15328 25-234 limits assumed): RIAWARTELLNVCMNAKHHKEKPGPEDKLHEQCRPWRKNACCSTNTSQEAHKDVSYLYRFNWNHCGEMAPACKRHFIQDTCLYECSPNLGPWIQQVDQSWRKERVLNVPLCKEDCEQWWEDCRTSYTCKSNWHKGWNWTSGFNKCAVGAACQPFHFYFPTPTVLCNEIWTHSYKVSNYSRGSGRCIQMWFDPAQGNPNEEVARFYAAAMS
Description: CHO cells were transfected to stably express human (CHO-hFOLR1), cynomolgus (CHO-cFOLR1), or mouse (CHO-mFOLR1) target molecule FOLR1 on the cell surface. Parental CHO cells were used as a negative control to determine background binding levels. Parental CHO and stably transfected CHO-hFOLR1, CHO-cFOLR1, and CHO-mFOLR1 cells were cultured in Ham's F-12: high glucose DMEM (50:50) (Corning, Cellgro-Mediatech) supplemented with 10% heat-inactivated fetal bovine serum (Corning, Cellgro-Mediatech), 1% Penicillin/Streptomycin (Corning, Cellgro-Mediatech) and 2 mmol/L-glutamax (Life Technology).
A mixture of fluoresecent-labeled parental CHO cells and unlabeled CHO-hFOLRlcells were prepared as follows. Parental CHO cells were washed twice in PBS and incubated in PBS containing with 1 nM CellTrace™ Oregon Green488® (Life Technologies) at 37° C. for 30 minutes. Labeled parental CHO cells were then washed 2× with Ham's F-12 media and 2× with FACS buffer (PBS with 1% bovine serum albumin). Unlabeled CHO-hFOLR1 cells were similarly washed and prepared. Labeled parental CHO and unlabeled CHO-hFOLR1 cells were combined at 1:1 ratio and seeded at 50 μL per well (200,000 cells per well) in 96 well polypropylene plates. Cells were mixed with 50 μL of test antibodies (i.e., anti-FOLR1 variants) serially diluted in FACS buffer and incubated on ice for 60 mins. Cells were washed with FACS buffer and incubated on ice for 60 mins with 100 μL FACS buffer containing 2.5 μg/mL R-Phycoerythrin-conjugated goat anti-Human IgG (Jackson ImmunoResearch Laboratories, West Grove, Pa.). Cells were washed twice with FACS buffer, fixed in 2% paraformaldehyde in PBS (Santa Cruz Biotechnology; Dallas, Tex.) for 10 mins on ice in the dark, and analyzed using the BD LSR II Flow Cytometer (BD Biosciences; San Jose, Calif.). Data were analyzed using FlowJo® software (FlowJo, LLC; Ashland, Oreg.) to determine mean fluorescence intensities. Binding constants were calculated using the statistical software, GraphPad Prism (GraphPad Software; La Jolla, Calif.) using the nonlinear regression equation, one site-specific binding with Hill slope. Secondary antibody alone was used as a control, in addition to measuring non-specific antibody binding to CHO parental cells.

[3] = target: T3, Murine folate receptor alpha (mouse, UniProt P35846 25-232); experiment: FACS, CHO-mFOLR1 cells
T3 construct: Stably expressed on CHO cells (CHO-mFOLR1); also called mouse FOLR1; CHO-mFOLR1
T3 sequence (P35846 25-232 limits assumed): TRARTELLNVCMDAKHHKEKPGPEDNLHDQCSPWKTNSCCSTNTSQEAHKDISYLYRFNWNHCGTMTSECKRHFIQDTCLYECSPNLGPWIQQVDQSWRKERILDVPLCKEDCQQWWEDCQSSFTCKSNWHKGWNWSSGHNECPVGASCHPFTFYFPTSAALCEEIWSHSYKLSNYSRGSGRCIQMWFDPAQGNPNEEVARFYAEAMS

human FOLR1-HIS = target: T4, human FOLR1-HIS (human, UniProt P15328 25-234); experiment: SPR (Biacore), antibody captured on anti-Fc, FOLR1-HIS as analyte, 25 C
T4 construct: Soluble analyte of the Biacore assay; also called human folate receptor alpha; hFOLR1; not shown: HIS tag
T4 sequence (P15328 25-234 limits assumed): as the sequence (P15328 25-234 limits assumed) above
Description: Anti-Fc polyclonal antibodies were immobilized onto a CM5 chip (GE Life Sciences) using amine coupling chemistry (from Amine Coupling Kit, GE Life Sciences). The immobilization steps were carried out at a flow rate of 25 μL/min in 1×HBS-EP+buffer (GE Life Sciences; 10× Stock diluted before use). The sensor surfaces were activated for 7 min with a mixture of N-hydroxysuccinimide (NHS, 0.05 M) and 1-ethyl-3-(3-dimethylaminopropyl)-carbodiimide (EDC, 0.2 M). The anti-Fc polyclonal antibodies were injected over all 4 flow cells at a concentration of 25 μg/mL in 10 mM sodium acetate, pH 4.5, for 7 min. Ethanolamine (1 M, pH 8.5) was injected for 7 min to block any remaining activated groups.
Off-rate and kinetic binding experiments were performed at 25° C. using 1×HBS-EP+buffer. Test and control antibodies were injected over the anti-Fc surface at concentrations of 5-10 μg/mL for 12 seconds at a flow rate of 10 μL/min on flow cells 2, 3 and 4, followed by a buffer wash for 30 seconds at the same flow rate.
The data were fit with the Biacore T200 Evaluation software, using a 1:1 Langmuir binding model. KD (affinity, nM) was determined as a ratio of the kinetic rate constants calculated from the fits of the association and dissociation phases.

T1 sequence (P15328 other isoform, or with tags, fused parts or gaps limits assumed): as the sequence (P15328 25-234 limits assumed) above, with I2T, W4R, R37K, Q117R, A146P, H171Y counted along it

Row | Bmax [1] [MFI] | Bmax [2] [MFI] | Bmax [3] [MFI] | koff (human FOLR1-HIS) [s⁻¹] | kon (human FOLR1-HIS) [M⁻¹ s⁻¹] | Binder
1 |  |  |  | 0.00139 | 659000 | SRP1848-H01 (antibody, V domains shown, trastuzumab light chain; captured through Fc in SPR (IgG format); HIS- and FLAG-tagged; also called Antibody 55) VH: EVQLVESGGGLVQPGGSLRLSCAASGFNIRTQSIHWVRQAPGKGLEWIGDIFPIDGITDYADSVKGRFTISADTSKNTAYLQMNSLRAEDTAVYYCARGSWSWPSGMDYYLDYWGQGTLVTVSS VL: not shown
2 | 17700 | 25100 | 2180 |  |  | SRP1848-G09 (antibody, V domains shown, VH/VL only; Fc-bearing IgG format with trastuzumab LC, HIS/FLAG-tagged, cell-free expressed; constant regions not tied; also called Antibody 52) VH: EVQLVESGGGLVQPGGSLRLSCAASGFNIRGTDIHWVRQAPGKGLEWVAYITPAGGATFYADSVKGRFTISADTSKNTAYLQMNSLRAEDTAVYYCARHEYWFSGYMDYWGQGTLVTVSS VL: not shown
3 | 14200 | 25300 | 2890 |  |  | SRP1848-G10 (antibody, V domains shown, VH/VL only; Fc-bearing IgG format with trastuzumab LC, HIS/FLAG-tagged, cell-free expressed; constant regions not tied; also called Antibody 53) VH: EVQLVESGGGLVQPGSSLRLSCAASGFNIRSTDIHWVRQAPGKGLEWVAYITPAGGATYYADSVKGRFTISADTSKNTAYLQMNSLRAEDTAVYYCARYPYWFAGYIDYWGQGTLVTVSS VL: not shown
4 | 11800 | 27200 | 2740 |  |  | SRP1848-G11 (antibody, V domains shown, VH/VL only; Fc-bearing IgG format with trastuzumab LC, HIS/FLAG-tagged, cell-free expressed; constant regions not tied; also called Antibody 54) VH: EVQLVESGGGLVQPGGSLRLSCAASGFNISSTDIHWVRQAPGKGLEWVAYITPAGGATWYADSVKGRFTISADTSKNTAYLQMNSLRAEDTAVYYCARYPYWFSGYMDYWGQGTLVTVSS VL: not shown

Continued, binder first:

Row | Binder | Bmax [1] [MFI] | Bmax [2] [MFI] | Bmax [3] [MFI] | koff (human FOLR1-HIS) [s⁻¹] | kon (human FOLR1-HIS) [M⁻¹ s⁻¹]
5 | SRP1848-D03 (antibody, V domains shown, VH/VL only; Fc-bearing IgG format with trastuzumab LC, HIS/FLAG-tagged, cell-free expressed; constant regions not tied; also called Antibody 25) VH: EVQLVESGGGVVQPGGSLRLSCAASGFNIRYFSIHWVRQAPGKGLEWVGDIFPNDGSTDYADSVKGRFTISADTSKNTAYLQMNSLRAEETAVYYCARGHWSWPSGYWYYLDYWGQGTLVTVSS VL: not shown | 14100 | 26000 | 3170 |  | 
6 | SRP1848-E06 (antibody, V domains shown, VH/VL only; Fc-bearing IgG format with trastuzumab LC, HIS/FLAG-tagged, cell-free expressed; constant regions not tied; also called Antibody 35) VH: EVQLVESGGGLVQPSGSLRLSCAASGFNINRYYIHWVRQAPGKGLEWVGGITPNDGYTDYADSVEGRFTTSADTSKNTAYLQMNSLRAEDTAVYYCARGTWSWPSGHSYYLDYWGQGTLVTVSS VL: not shown | 15800 | 25600 | 2350 |  | 
7 | SRP1848-A02 (antibody, V domains shown, VH/VL only; Fc-bearing IgG format with trastuzumab LC, HIS/FLAG-tagged, cell-free expressed; constant regions not tied; also called Antibody 2) VH: EVQLVESGGGLVQPGGSLRLSCAASGFNISGFRIHWVRQAPGKGLEWVAGIYPESGATYYADSVKGRFTISADTSKNTAYLQMNSLRAEDTAVYYCARHLYVWDWVLDHVLDYWGQGTLVTVSS VL: not shown | 18500 | 24700 | 18600 |  | 
8 | SRP1848-G04 (antibody, V domains shown, VH/VL only; Fc-bearing IgG format with trastuzumab LC, HIS/FLAG-tagged, cell-free expressed; constant regions not tied; also called Antibody 49) VH: EVQLVESGGGLVQPGGSLRLSCAASGFNIHSTDIHWVRQAPGKGLEWVAYITPAGGATFYADSVKGRFTISADTSKNTAYLQMNSLRAEDTAVYYCARYPYWFAGYMDYWGQGTLVTVSS VL: not shown | 12500 | 25200 | 2000 |  | 
9 | SRP1848-G06 (antibody, V domains shown, VH/VL only; Fc-bearing IgG format with trastuzumab LC, HIS/FLAG-tagged, cell-free expressed; constant regions not tied; also called Antibody 50) VH: EVQLVESGGGLVQPGGSLRLSCAASGFNIRSTDIHWVRQAPGKGLEWVAYITPAGGATYYADNVKGRFTISADTSKNTAYLQMNSLRAEDTAVYYCARQPYWFAGYMDYWGQGTLVTVSS VL: not shown | 12800 | 25800 | 1860 |  | 
